These results are taken from patent US20080044436A1, “Method for Screening and Compositions for Treating Cancers” (priority 2004, published 2008).

Holding throughout (assay type): cell-based, human
The subject of assay [1] is TReP-132 mRNA. Put plainly: Quantitative RT-PCR of TReP-132 mRNA in T47-D cells. To be noted: 30 nM progesterone, 48 hours of exposure. As to the method:
Total RNA from T47-D cells treated or not with progesterone was reverse transcribed and TReP-132 transcript levels were measured by quantitative RT-PCR as described in Gizard et al. (2004) using primers specific for […] and [NT]). […] Transfection was carried out by using the GeneSilencer reagent (Gene Therapy Systems, San Diego, USA) as directed by the manufacturer. Transfection efficiency was verified by FACS analysis (Fluorescence-Activated Cell Sorting) (see below). […] Statistical analyses were carried out with the nonparametric Kruskal-Wallis test.

For assay [2], the system named is p16^INK4 gene. Put plainly: RNase protection assay of CDKI transcription in HeLa cells, p16. To be noted: HeLa Tet-off cells, doxycycline removed.
For assay [3], the system named is HeLa cells. Put plainly: Cell cycle analysis by flow cytometry after TReP-132 induction. To be noted: HTO-GFP/TReP-132 cells, from 48 hours after doxycycline removal. The text has this:
HeLa Tet-off cells expressing the tTA transactivator under the control of tetracycline or doxycycline (Dox) (Clontech Laboratories, Palo Alto, Calif.) were stably transfected with the pBI-EGFP-TReP-132 vector or the pBI-EGFP control vector. In order to select stably transfected cells, the pcDNA6 plasmid (Invitrogen, Ontario, CA) containing the blasticidin resistance gene was cotransfected at a ratio of 1:50. For these transfections, the cells were first seeded in 6-well plates at an initial density of 1×10^5 cells per well, incubated for 24 hours, then transfected with ExGen 500 (MBI Fermentas, Flamborough, Ontario, CA) at a ratio of 5 μl of ExGen 500 for a total of 1 μg of plasmid such as described hereinabove in the section “Colony formation assays”. 48 hours post-transfection, cells were selected for 2 weeks with blasticidin (Sigma-Aldrich CA Ltd.). Clearly visible colonies were then were picked and subcloned on 12-well plates to enable growth. […]
To evaluate the percentage of cells in the G0/G1, S, or G2/M phase, flow cytometry profiles were determined on propidium iodide stained DNA from said cells. […] The percentage of cells in the G1, S, and G2/M phase was quantified with Multicycle AV software (Phoenix Flow System, San Diego, Calif.) (28).
A general note: Flow cytometry measures light scatter and fluorescence of single cells or particles in a stream.

In assay [4] the test system is p27 promoter. Briefly: Luciferase reporter assay in HeLa cells, p27 promoter. To be noted: 0.3 μg TReP-132 expression vector, dose-dependent. As to the method: The pGL2 and pGL3 reporter constructs (100 ng) were cotransfected with the indicated amounts of expression vectors and 10 ng of the control plasmid pRL.Null. The amount of plasmid was then normalized with the empty vector pcDNA3. After 12 hours of transfection, the medium was changed and cells were incubated for an additional 10 and 34 hours, respectively. During this period, T47-D cells were cultured in the presence and absence of progesterone (30 nM). The cells were then harvested and cell lysates (20 μl) were assayed for luciferase activity (Dual Luciférase™ Reporter Assay System, Promega, Madison, Wis., USA) in a Berthold LUMAT LB9501 luminometer. The transfections were performed in triplicate and each experiment was repeated at least three times.
TReP-132 activation of the p21, p27 and p16 cyclin kinase inhibitor promoters was studied by transfection of HeLa and T47-D cells. HeLa cells were seeded in 24-well plates at an initial density of 15,000 cells per well and transfected the next day with ExGen 500 (MBI Fermentas, Flamborough, Ontario, Canada) at a ratio of 4 μl of ExGen 500 per 0.5 μg DNA. T47-D cells were seeded at a density of 100,000 cells per well and transfected the next day with FuGENE 6 reagent (Roche Molecular Biochemicals, Laval, Canada), at a ratio of 3 μl of FuGENE per 1 μg of DNA. […]
Background: A reporter such as luciferase makes a cellular process visible.

The test system of assay [5] is p21^CIP1/WAF1 gene. Briefly: RNase protection assay of CDKI transcription in HeLa cells, p21. The settings on record: HeLa Tet-off cells, doxycycline removed. As to the method: All radiolabelled probes specific for the p130, Rb, p107, p53, p57, p27, p21, p19, p18, p14/p15, L32, and GAPDH genes were labelled with [α-^32P]UTP-ribonucleotide (PerkinElmer Life Sciences, Woodbridge, Ontario, CA) in the conditions specified in the “hCC-2 Muti-Probe Template Set” kit (Pharmingen, Mississauga, Ontario, CA). Ribonuclease protection experiments were carried out with the Ribonuclease III Protection kit (Ambion, Austin, Tex.). Ten micrograms of HeLa cell RNA were hybridized with the radiolabelled probe mixture at 56° C. and then digested for 45 min at 30° C. in RNase A/RNase T1 solution diluted 1:1000 in digestion buffer. The samples were separated on a polyacrylamide-6% urea gel.

With `CC(=O)[C@H]1CC[C@H]2[C@@H]3CCC4=CC(=O)CC[C@]4(C)[C@H]3CC[C@]12C` [progesterone, reference compound], the “TReP-132 mRNA levels, peak increase” value in assay [1] is listed as 3 fold.

B1: TReP-132: Transcriptional Regulating Protein of 132 kDa, polypeptide comprising SEQ ID NO: 2; here expressed in cells from vectors (protein)
chain: MGDQQLYKTNHVAHGSENLFYQQPPLGVHSGLNHNYGNAVTGGGMDAPQASPISPHFPQDTRDGLGLPVGSKNLGQMDTSRQGGWGSHAGPGNHVQLRGNLANSNMMWGAPAQAEPTDGYQYTYSQASEIRTQKLTSGVLHKLDSFTQVFANQNLRIQVNNMAQVLHTQSAVMDGAPDSALRQLLSQKPMEPPAPAIPSRYQQVPQQPHPGFTGGLSKPALQVGQHPTQGHLYYDYQQPLAQVPVQGGQPLQAPQMLSQHMQQMQQHQYYPPQQQQQAGQQRISMQEIQTQPQQIRPSQPQPPPQQQQPQQLQLQQRQGSMQIPQYYQPQPMMQHLQEQQQQQMHLQPPSYHRDPHQYTPEQAHTVQLIPLGSMSQYYYQEPQQPYSHPLYQQSHLSQHQQREDSQLKTYSSDRQAQAMLSSHGDLGPPDTGMGDPASSDLTRVSSTLPHRPLLSPSGIHLNNMGPQHQQLSPSAMWPQMHLPDGRAQPGSPESSGQPKGAFGEQFDAKNKLTCSICLKEFKNLPALNGHMRSHGGMRASPNLKQEEGEKVLPPQPQPPLPPPPPPPPPPQLPPEAESLTPMVMPVSVPVKLLPPKPSSQGFTNSTVAAPSARDKPASSMSDDEMPVLEIPRKHQPSVPKAEEPLKTVQEKKKFRHRPEPLFIPPPPSYNPNPAASYSGATLYQSQLRSPRVLGDHLLLDPTHELPPYTPPPMLSPVRQGSGLFSNVLISGHGPGAHPQLPLTPLTPTPRVLLCRSNSIDGSNVTVTPGPGEQTVDVEPRINIGLRFQAEIPELQDISALAQDTHKATLVWKPWPELENHDLQQRVENLLNLCCSSALPGGGTNSEFALHSLFEAKGDVMVALEMLLLRKPVRLKCHPLANYHYAGSDKWTSLERKLFNKALATYSKDFIFVQKMVKSKTVAQCVEYYYTWKKIMRLGRKHRTRLAEIIDDCVTSEEEEELEEEEEEDPEEDRKSTKEEESEVPKSPEPPPVPVLAPTEGPPLQALGQPSGSFICEMPNCGAVFSSRQALNGHARIHGGTNQVTKARGAIPSGKQKPGGTQSGYCSVKSSPSHSTTSGETDPTTIFPCKECGKVFFKIKSRNAHMKTHRQQEEQQRQKAQKAAFAAEMAATIERTTGPVGAPGLLPLDQLSLIKPIKDVDILDDDVVQQLGGVMEEAEVVDTDLLLDDQDSVLLQGDAEL
For B1, in assay [2], the p16 gene transcription entry was “induction”. The cell cycle effect entry in assay [3] is given as “arrested cells in the G1 phase”. In addition, the p27 promoter induction result in assay [4] is “approximately 7 fold”. In assay [5], the p21 gene transcription result is “induction”.
